The record followed here is patent publication US20090269346A1 (RAPTOR PHARMACEUTICAL, published 2009).

Changes are numbered by the printed parent chain.

The target in one test is T1, ST14 CR12 (human, UniProt Q9Y5Y6 452-524).
T1 construct: also called MAT CR12; Mat CR12
T1 sequence: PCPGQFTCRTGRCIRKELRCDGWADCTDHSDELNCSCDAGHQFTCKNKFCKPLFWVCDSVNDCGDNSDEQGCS
Nature of the test: solid-phase binding assay, ligand at 80 nM on coated CR proteins, blank-corrected absorbance. The method, then:
(§1) Solid phase binding assays-Purified, refolded CR protein (1 μg) was bound to Nunc Maxisorp™ 96-well plates in TBS pH 8 supplemented with 5 mM CaCl₂ (TBSC) overnight at 4° C. Wells were washed with TBSC and then blocked with TBSC containing 2% bovine serum albumin (BSA). RAP ligands were then incubated with the immobilized receptor at a range of concentrations for 2 hours in the above blocking buffer supplemented with 0.05% Tween-20 at room temperature. Control wells contained no added ligand. As an additional control, to determine whether the absence of calcium affected binding, 10 mM EGTA was included in the incubation medium for some samples. Wells were washed with TBSTC and bound ligands detected with polyclonal anti-RAP (BP41/42, 1:1,000, BioMarin). Excess primary antibody was removed and wells washed before incubation with the secondary antibody, HRP-conjugated goat anti rabbit IgG (Bio-Rad). After washing, TMB substrate solutions (Bio-Rad) were added to detect HRP. Color development was stopped with 1N HCl. Absorption at 450 nm was measured with a microplate spectrophotometer (Molecular Devices). Data were plotted and Kd values derived by non-linear regression with the assumption of single-site binding (GraphPad Prism).
(§2) Binding experiments were also carried out comparing the binding of RAP d3 and RAPv2A d3 to an array of CR pairs (FIG. 9), similar to the experiment depicted in FIG. 5. For these experiments, RAP d3 and RAPv2A d3 (or RAPv2 d3) were each incubated at 80 nM concentrations with LRP1 CR3-5, LRP6 CR12, LRP6 CR23, LRP6 CR1-3, LRP2 CR89, LRP2 CR2728, LRP2 CR3031, LRP2 CR3435, LRP2 CR34-36, VLDLR CR78, VLDLR CR6-8, MAT CR12, MAT CR23 and MAT CR34. Samples were tested twice, in duplicate, and values combined. Means and standard deviations were then calculated. Blank values obtained from wells incubated in the absence of ligand were used to correct absorbance data.

The next test has as its target T2, LRP2 CR3031 (UniProt P98164 3677-3755).
T2 construct: domain: CR30 and CR31; its making is not described
The description is as above. On the procedure: as §1, §2

A further test has as its target T3, LRP2 CR2728 (UniProt P98164 3552-3631).
T3 construct: domain: CR27 and CR28; its making is not described
T3 sequence (looked up): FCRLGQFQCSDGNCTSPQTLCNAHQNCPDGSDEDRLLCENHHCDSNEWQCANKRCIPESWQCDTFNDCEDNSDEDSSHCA
The test is described as above. On the procedure:
as §1, §2

A further test deals with T4, LRP2 CR89 R1088D (human, UniProt P98164 1022-1105).
T4 construct: also called YVWD
Nature of the test: solid-phase assay, coated CR protein, anti-RAP, OD450. On the procedure: as §1
(§3) One premise of this work was that amino acids at A, C, A′ and C′ within the calcium-binding loops of a CR pair were key determinants of binding affinity for RAP and would be similarly important for binding of RAP variants. To test this idea, we prepared mutants of LRP2 CR89 in which the native, non-canonical residues at these positions were sequentially substituted with the non-native, canonical residues. As defined above, the A, C, A′, C′ string for LRP2 CR89 is YVWR. Mutants included LRP2 CR89 Y1042W (WVWR), LRP2 CR89 V1047D (YDWR), LRP2 CR89 R1088D (YVWD), LRP2 CR89 V1047D R1088D (YDWD), LRP2 CR89 Y1042W V1047D R1088D (WDWD), LRP2 CR89 Y1042W V1047D (WDWR), LRP2 CR89 Y1042W R1088D (WVWD). Binding to both RAP d3 and RAPv2A d3 were measured for each LRP2 CR89 mutant by solid-phase assay. Samples were tested in triplicate. OD values from uncoated wells, receptor-coated wells incubated with buffer alone, and uncoated wells incubated with the highest ligand concentration all gave similar values for all conditions tested.

A further test has as its target T5, LRP2 CR89 Y1042W (human, UniProt P98164 1022-1105).
T5 construct: also called WVWR
T5 chain: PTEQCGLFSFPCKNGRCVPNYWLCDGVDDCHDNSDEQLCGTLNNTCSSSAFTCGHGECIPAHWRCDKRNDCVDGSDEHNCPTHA
Described as above. The method, then: as §1, §3

The next test concerns the target T6, LRP2 CR89 V1047D R1088D (human, UniProt P98164 1022-1105).
T6 construct: also called YDWD
T6 chain: T5 chain with W22Y, V27D, R68D
The test is described as above. The method, then:
as §1, §3

For test [1], the target named is T7, LRP2 CR89 (human, UniProt P98164 1025-1102).
T7 construct: domain: CR8 and CR9; also called YVWR; L2 CR89; not shown: N-terminal hexahistidine and S-peptide from pET30(+)a
T7 sequence (P98164 1025-1102): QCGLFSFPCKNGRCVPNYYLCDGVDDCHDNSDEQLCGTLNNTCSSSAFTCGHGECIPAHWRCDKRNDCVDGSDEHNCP
The test is described as above. The method, then: as §1, §3

Another test addresses T8, VLDLR CR6-8 (human, UniProt P98155 235-358).
T8 construct: range 235-358; also called V CR6-8; not shown: N-terminal hexahistidine and S-peptide from pET30(+)a
Described as above. On the procedure:
as §1
(§4) Additional assays were performed to assess the binding of wild-type RAP d3 (SEQ ID NO: 92) to each CR pair or set of overlapping pairs was then measured by solid-phase assay (FIG. 5B). Diluted samples were incubated with each test protein, immobilized in multiwell plates. Binding assays were performed as described in Methods. Two independent experiments were performed with triplicate wells for each sample. Means and standard deviations were calculated from the combined values from both experiments and plotted against ligand concentration. Curves were fitted using non-linear regression with a single-site binding model (GraphPad Prism). Kd values with standard deviations were derived from the fitted curves. In all cases, 10 mM EGTA removed >85% of the mean binding signal at the highest concentration of ligand tested.

The target in another test is T9, LRP1 CR3-5 (human).
T9 construct: range 852-973; Amplified from human cDNA; also called L1 CR3-5
T9 sequence (Q07954 852-973): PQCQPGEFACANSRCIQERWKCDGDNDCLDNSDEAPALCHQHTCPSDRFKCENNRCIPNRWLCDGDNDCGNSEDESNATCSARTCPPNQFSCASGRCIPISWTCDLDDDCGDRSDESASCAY
The test is described as above. On the procedure:
as §1, §4

Test [2] deals with T7, LRP2 CR89. The test is described as above. On the procedure:
as §1, §4
The source holds these as a separate data set.

T2 sequence (P98164 3677-3755): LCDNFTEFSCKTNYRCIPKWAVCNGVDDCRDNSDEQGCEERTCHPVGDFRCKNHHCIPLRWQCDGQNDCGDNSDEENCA

B1: wild-type RAP d3 (ligand)
chain: LDRLRRVSHQGYSTEAEFEEPRVIDLWDLEQSANLTDKELEAFREELKHFEAKIEKHNHYQKQLEIAHEKLRHAESVGDGERVSRSREKHALLEGRTKELGYTVKKHLQDLSGRISRAR
notes: expressed in E. coli from pET30(+)a; not shown: vector-encoded N-terminal tags of pET30(+)a (hexahistidine and S-peptide, as stated for the CR constructs)
As a reminder, the Kd is a measure of binding affinity in units of concentration. For B1, the binding result in the test with ST14 CR12, in the test with LRP2 CR3031 and with LRP2 CR2728 was “no binding (tested: 80 nM)” throughout. For the same molecule, the “% max bind” value in the test with LRP2 CR89 R1088D was determined as 7%; with LRP2 CR89 Y1042W, 9%; in the test with LRP2 CR89 V1047D R1088D, 6%; in the test with LRP2 CR89 [1] it was 7%. Also, the figures for the dissociation constant (Kd) with VLDLR CR6-8, with LRP1 CR3-5 and in the test with LRP2 CR89 [2] were above 300 nM, 11 nM and above 300 nM, respectively.
